The results in this text go back to the nanobody polyreactivity screen of Harvey et al. (2022).

The nature of this series: yeast display, Sf9 membrane polyspecificity reagent, FACS + sequencing; frameworks hold sequencing errors. The method, boiled down: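 Galactose-induced (36–48 hours) yeast carrying a synthetic nanobody display library were exposed to 10% biotinylated, detergent-solubilized Sf9 membrane reagent at 4 °C for 1 hour. FACS followed streptavidin microbead enrichment, using low and high (top ~1%) gates for expression (anti-HA) and reagent binding (streptavidin). Colony PCR, MiSeq 2 × 250 sequencing and CDR-length filtering followed. Labels for polyreactivity reflect the gate of origin.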
“QVQLVESVGGLVQAGGSLRLSCAASGSTFGYYTMGSYRQAPGKEKELVAAITWSGGSTYYADSVKGRITISRDNAKYTVYLQINSLKPEDTAVYYCADDDYWTPFGYLGQGTQVTVSS”: the “polyreactivity (PSR sort gate)” value is “low polyreactivity”.

As to “QVQLVESVGGLVQAGGSLRLSCAASGSTFHRNTMGWDRQAPGKERELVAGISLRGVRTYYADSVKGRFTISRDKAKNTVYLQMNSLKPEDTAVYYCAAGCPYTRNFKLGYWGQGTQVTVSS”, the “polyreactivity (PSR sort gate)” value is on record as “high polyreactivity”.

On to “QVQLVESVGGLVQAGGSLRLSCAASGSTFIIYAMGWYRQAPGKERELVATISTRGTSTYYADSVKGRFTISRDNEKNTVYLQMKSLKPEDTAVYYCNARRRGYGNRYTFDYWGQGTQVTVSS”, for which the “polyreactivity (PSR sort gate)” value is given as “high polyreactivity”.

Regarding “QVQLVESVGGLVQAGGSLRLSCAASGSTFRPYAMGWSRQAPGKERELVAAITGSGGSTYYADSVKGRFTISRDNAKNTVYLQMNSLKPEDTAVYYCNAVSTWRYYYWGQGTQVTVSS”, the “polyreactivity (PSR sort gate)” value is reported as “high polyreactivity”.

As to “QVQLVESVGGLVQAGGSLRLSCAASGSTFRYYAMGWYRQAPGKERELVAAITGSGGSTYYADSVKGRFTISRDNAKNTVYLQMNSLKPEDTAVYYCAAYCSRSILRYDSWGQGTQVTVSS”, the “polyreactivity (PSR sort gate)” value is “high polyreactivity”.

On to “QVQLVESVGGLVQAGGSLRLSCAASGSTFTAYAMGWYRQAPGKERELVAAITSGGSKNYADSVKGRFTISRDNAKNTVYLQMNSLKPEDTAVYYCNADDYWLDSWSSFLWYDYWGQGTQVTVSS”, for which the “polyreactivity (PSR sort gate)” value is “low polyreactivity”.

Consider “QVQLVESVGGLVQAGGSLRLSCAASGSTFTSNAMGWYRQAPGKEREFVAAISVGGGITYYADSVKGRFTISRDNAKNTVYLQMNSLKPEDTAVYYCAADAWSVILWREMDYWGQGTQVTVSS”, for which the “polyreactivity (PSR sort gate)” value was “low polyreactivity”.

“QVQLVESVGGLVQAGGSLRLSCAASGSTFWYNAMGWYRLAPGKERELVAAISQSGGRTYYADSVKGRFTISRDNAKNTVYLQMNSLKPEDTAVYYCNAVSRDKSLYDYWGQGTQVTVSS”: the “polyreactivity (PSR sort gate)” value was “high polyreactivity”.

On to “QVQLVESVGGLVQAGGSLRLSCAASGSTIDGYAMGCYIQAPGKEREFVAAISFSSASTYYADSVKGRFTISRDNAKNTVYLQMNSLKPEDTAVYYCNADFFDSGGSIEDDSWGQGTQVTVSS”, for which the “polyreactivity (PSR sort gate)” value was “low polyreactivity”.

Consider “QVQLVESVGGLVQAGGSLRLSCAASGYILPKNTMGWYIQAPGKERELVAAISWSGGSTFYADSVKGRFTISRDNAKNTVYLQMNRLKPEDTAVYYCAADRSWSWYYRYDYWGQGTQVTVSS”, for which the “polyreactivity (PSR sort gate)” value was “low polyreactivity”.

“QVQLVESVGGLVQAGGSLRLSCAASVYMFYDYDMGWYRQAPGKAREFVARITSDGSTYADSVKGRFTISRDNAKNTVYLQMNMLKPEDTAVYYCNRKSRSYFWSVQDSFKYDYWGQGTQVTVSS”: the “polyreactivity (PSR sort gate)” value was “low polyreactivity”.

Regarding “QVQLVESVGGLVQAGGSLRLSCAGSGFTFYRYTMGWYRQAPGTERELVAAISFSGGITRYADSVKGRFTISRDNAKNTVYLQMNSLKPEDTAVYYCNVVGPSAYLSWHKSGDYWGQGTQVTVSS”, the “polyreactivity (PSR sort gate)” value was “low polyreactivity”.

Consider “QVQLVESVGGLVQAGGSLRLSCAGSGSIFFRNSMLWYRQAPGKERELVAAIRSSVSSTYYADSVKGRFTISRDNAKNTVYLQLNSLKPEDTAVYYCAAAARSYVGYYYWGQGTQVTVSS”, for which the “polyreactivity (PSR sort gate)” value was “low polyreactivity”.

For “QVQLVESVGGLVQAGGSLRLSCAGSGSTFGRYTMGSSRQAPVKEREFVAAIRWSGGNTYYADTVKGRFTISRGKAKNTVYLQMNSLKTEDTAVFYCNRVYSTIGDYWGQGTQVTVSS”, the “polyreactivity (PSR sort gate)” value is given as “low polyreactivity”.

In the case of “QVQLVESVGGLVQAGGSLRLSCASSGRIFRGNAMGWYRQAPGKERELVAAINSRGTHTYYADSVKGRFTISRDNAKNTVYLQMNSLKPEDTAVYYCAATWTQPQPGYYAYYYWGQGTQVSVSS”, the “polyreactivity (PSR sort gate)” value is listed as “high polyreactivity”.

Turning to “QVQLVESVGGLVQAGGSLRLSCASSGSIFEGSAMGRYRQAPGKEMELVASISSGGSTNYADSVKGRFTISRDNAKNTVYLQMNSLKPEDTAVYYCAAEWVWYKWEFEYWGQGTKVTVSS”, the “polyreactivity (PSR sort gate)” value is “high polyreactivity”.

For “QVQLVESVGGLVQAGGSLRLSCASSGSTFGFNAIGWYRKAPVKERELVAANTFSGGTTYYADSVKGRFTISRDNAKNTVYLQMNSLKPEDTAGYYCNAEWWYQYTGPFSPWGEDYWGQGTQVTVSS”, the “polyreactivity (PSR sort gate)” value is reported as “low polyreactivity”.

As for “QVQLVESVGGLVQAGGSLRLSCDASGRIFRRYAMGWYRQAPGKERELVAAISSSGDSTYYADSVKGRFTISRDNAKNTVYLQMNSLKPEDTAVYYCAAVTRRYVLSTFYYWGQGTQVTVSS”, the “polyreactivity (PSR sort gate)” value was “high polyreactivity”.

With “QVQLVESVGGLVQAGGSLRLSCDASGRTFRVYAMGWYRQAPGKERELVAAITSGDSTYYADSVKGRFTISRDNAKNTFYLQMNSLKPEDTAVYYCAVNTSRYWSGYWGQGTQVTVSS”, the “polyreactivity (PSR sort gate)” value was “high polyreactivity”.

In the case of “QVQLVESVGGLVQAGGSLRLSCDASGSTFPKYAMGRSRQAPAKEIELVAGISWRGGSTYYADSVKGRFTISRDNAKNTVYLQMNSLKPEDTAVYYCNKYLYYSFQDDYWGQGTQVTVSS”, the “polyreactivity (PSR sort gate)” value was “high polyreactivity”.

With “QVQLVESVGGLVQAGGSLRLSCPASGFTFKYYAMGWYRQAPGKEREFVAAISRSGGSTTYADSVKGRFTISRDNAKNTVYLQMNSLKPEDTAVYYCAVAYYTAYTPRDGEYWGQGTQVTVSS”, the “polyreactivity (PSR sort gate)” value is listed as “high polyreactivity”.

Take “QVQLVESVGGLVQAGGSLRLSCPASGSIFYANAMGGYRQAPGKERELVATISTGGGRTYYADSVKGRFTISRDKAKNTVYLQMNSLKAEDTAVYYCNATRNYARVRYYYWGKGTQVTVSS”: the “polyreactivity (PSR sort gate)” value was “high polyreactivity”.

With “QVQLVESVGGLVQAGGSLRLSSAASGFTFVPYAMGWYRQAPGKERETNADSVKGRFTISRDNAKNTVYLQMNSLKPEDTAVYYCAADLGRGIYDYWGQGTQVTVSS”, the “polyreactivity (PSR sort gate)” value is reported as “low polyreactivity”.

For the sequence “QVQLVESVGGLVQAGRSLRLSCAASGNTFLRYAMGWYRQAPGKERELVAAISRSGGSTYYADSVKGRFTISRDNAKNTVYLQMNSLKPEDTAVYYCAARRSSQPDKGYYYWGQGTQVTVSS”, the “polyreactivity (PSR sort gate)” value is “high polyreactivity”.

As for “QVQLVESVGGLVQEGGSLRLSCAASGSNFQWYAMGWYRQAPGKERELVAAIRYSGDSTYYADSVKGRFTISRDNAKNTDYLQMNSLKPEDTAVYYCAAEATTRWLLYNYWGQGTQVTVSS”, the “polyreactivity (PSR sort gate)” value was “high polyreactivity”.

With “QVQLVESVGGLVQPGGSLRLSCAASGRTFGRYAKGWYRQAPGKERELVAGISRSGDSTHYADSLKGRFTISRDNAKYCVYLQMKSLKPEDTEVYYCNKETPTIGARKYEYWGQGTQVNVSS”, the “polyreactivity (PSR sort gate)” value is on record as “low polyreactivity”.

On to “QVQLVESVGGLVQSGGSLRLSCAASGFTFYRYGIGWYREAPGKERELVAAITSGGITYYADSVKGRFTISRDNAKNTVYLQLNSLKPEDTAVYYCNAVYPVAAIVRYDYWGQGTQVTVSS”, for which the “polyreactivity (PSR sort gate)” value is recorded as “high polyreactivity”.

For the sequence “QVQLVESVGGVVQAGGSLRLSCAASGSIFRWNAMGWYRQARGKEWELVAVNTWRGGRTYYADSVKGRFTFSRDNAKKTVYLQMNSLNPEYTSFSYCAKGRLVTTLFGHYATCEYDSWGHGTQVTVSS”, the “polyreactivity (PSR sort gate)” value is listed as “high polyreactivity”.

“QVQLVESVGVLVQAGARLRLSCAASGSIFRTNTMGSYRQAPVKERELVAAITAIGDSTYYGDSVKGRFTISRDNAKNTVYLQMNSLKPEDTAVYYCAAEKVSWGYHFYSSSDYWGQATQVTVSS”: the “polyreactivity (PSR sort gate)” value is recorded as “low polyreactivity”.

On to “QVQLVESVGVLVQAGGSLRLSCAASVSIFDYNAMGWYRQAPGKERELVADITISDDSTYYADSVKGRFTISRDNAKNTVYLQMNSLKPEDTAVYYCAADIKYYWYYYYWAYAYDYWGQGTQVTVSS”, for which the “polyreactivity (PSR sort gate)” value was “high polyreactivity”.

With “QVQLVESVRGLVQAGGSLRLSCAASGFIFRSYAMGWYRQAPGKEREFVAAISRSGGRTYYADSVKGRFTISRDNAKNTVYLQMNCLKPEDTAVYYCAATVGGSYTFDYWGQGTQVTVSS”, the “polyreactivity (PSR sort gate)” value is given as “high polyreactivity”.

In the case of “QVQLVESVVGLVQAGGILRLSCSASGRTFVHYTMGWYRQAPGKETELVAAISGTGTSTYYADSVKGRFTISRDNAKNTVYLQMNSLKPEDTAVYYCARDPYFGFHMGYPRRDYWGQGTHVTVSS”, the “polyreactivity (PSR sort gate)” value is recorded as “low polyreactivity”.

“QVQLVESVVGLVQAGGSLRLRCAASGIIFSKYAMGWYIQEPGKERELVARISWRGGDTYYADSVKGRFTISRDNAKNTVYLKMNSMKQEDTSVYYFNARIWGRYFSYTRFDYWGQCTQVTVSS”: the “polyreactivity (PSR sort gate)” value is recorded as “high polyreactivity”.

Take “QVQLVESVVGLVQAGGSLRLSCAASGITFNRNAMGWYIEAPGKERELVAAISSGGSTNYADSVKGRFTISRDNAKNTVYLQMNSLKPEDTAVYYCARAQYWYGKGYYYWGQGTQVTVSS”: the “polyreactivity (PSR sort gate)” value is given as “high polyreactivity”.

In the case of “QVQLVESVVGLVQAGGSLRLSCAASGRIFIIYAMGWYIQAPGKEREFVAAITSSGGSTYYGDSVKGRFTISRDNAKNTVYLQMNSLKPEDSAVYYCAARVTKLRTSSLRGYWGQGTQVTVSS”, the “polyreactivity (PSR sort gate)” value is reported as “high polyreactivity”.

As to “QVQLVESVVGLVQAGGSLRLSCAASGRTFYRNGMGWYRQAPGKERELVAAISSRGGSTYYADSVKGRFTISRDNAKNTVYLQMNSLKPEDTAVYYCAAPRASGYYWGQGTQVTVSS”, the “polyreactivity (PSR sort gate)” value is “high polyreactivity”.

As for “QVQLVESVVGLVQAGGSLRLSCAATGSIFRWYAMGWYRQAPGKERELVAAITWSASRTYYADSVKGRFTISRDNGKNTVYLQMNSLKPEDTAVYYCAADHDCPYAGYDSWGQGTQVTVSS”, the “polyreactivity (PSR sort gate)” value is listed as “low polyreactivity”.

Turning to “QVQLVESVVGLVQAGGSLRLSCDASGRIFRYYAMGWYRQAPGKERELVARITSSGSTYYADSVKGRFTISRDNAKNTVYLQMNSLKPDDTAVYYCAADWYWGGIVDSWGQGTQVTVSS”, the “polyreactivity (PSR sort gate)” value is “high polyreactivity”.

Take “QVQLVESVVGLVQAGGSLRLSSAASGRIFNQYGMGWYRQSPGKESELVAAIRSGDSTNYADSVKGRFTISRDNAKNTVYLQMNSLKPEDTAVYYCARDLPGDYAGFDYWGQGTQVTVSS”: the “polyreactivity (PSR sort gate)” value is “low polyreactivity”.

Take “QVQLVESWGGLDQAGGSLRLSCAASGSTFYAYAMGWYRPAPGKERELVAAISSDGTNYADSVKGRFTISRDNAKNTVYLQMNSLKPEDTAVYYCAADLLLYSSQDNDFWGQGTQVTVSS”: the “polyreactivity (PSR sort gate)” value is on record as “low polyreactivity”.

On to “QVQLVESWGGLFQAGGTLRLSCAASGRTFIGYDMEWYRQAPGKERELVATISWNGADTYYADSVKGRYTISRDNAKNTVYLKMNSLKPEDTEVYYCAAERENGDHYRYYYWGQGTQVTVSS”, for which the “polyreactivity (PSR sort gate)” value is “low polyreactivity”.
